The results in this text go back to patent publication US20250250357A1 (NANJING ZAIMING PHARMACEUTICAL, published 2025).

In test [1] the target is T1, human MSLN full-length protein (NCBI: AAH09272.1) expressed on HEK293T-hMSLN-B8 cells (human, UniProt Q13421 296-598).
T1 construct: Whole encoded precursor
Description: FACS on HEK293T-hMSLN-B8 cells.

Test [2] has as its target T2, human MSLN protein endogenously expressed on OVCAR3 tumor cells (human, UniProt Q13421 296-598).
T2 construct: whole, on cells; Endogenous target on OVCAR3 cells; kept apart from the recombinant full-length construct; also called mesothelin
Description: FACS on OVCAR3 cells.

Test [3] deals with T3, monkey MSLN full-length protein (NCBI: XP_028696439.1) expressed on HEK293T-monkey MSLN cells (monkey).
T3 construct: Whole encoded precursor
T3 chain: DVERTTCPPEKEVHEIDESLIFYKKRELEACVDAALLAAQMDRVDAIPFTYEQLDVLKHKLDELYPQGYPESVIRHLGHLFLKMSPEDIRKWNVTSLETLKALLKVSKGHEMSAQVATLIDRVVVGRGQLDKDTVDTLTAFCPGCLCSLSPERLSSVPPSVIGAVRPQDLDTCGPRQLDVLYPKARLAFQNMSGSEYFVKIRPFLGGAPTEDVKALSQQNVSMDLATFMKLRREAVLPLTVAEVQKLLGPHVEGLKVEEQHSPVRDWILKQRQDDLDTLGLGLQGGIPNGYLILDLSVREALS
Description: FACS on HEK293T-monkey MSLN cells.

The target in test [4] is T4, human MSLN-R3 protein (Met487-Ser606 of NCBI AAH09272.1) expressed on HEK293T-hMSLN-R3 cells (human, UniProt Q13421 487-606).
T4 construct: also called Region3
Description: FACS on HEK293T-hMSLN-R3 cells.

The target of test [5] is T5, human MSLN-R3-3 polypeptide (human).
T5 construct: also called human MSLN-R3-3 protein; hMSLN-R3-3
Description: ELISA, coated antigen; antibody 10 nM. (ELISA stands for enzyme-linked immunosorbent assay.)

In test [6] the target is T5, human MSLN-R3-3 polypeptide. Description: ELISA, coated antigen; no antibody (blank, column 'none').
Test [7] shares this target. Description: ELISA, coated antigen; antibody 1 nM.
In test [8] the target is T6, human MSLN-R3-his protein (human, UniProt Q13421 487-598).
T6 construct: also called human MSLN-R3 protein; hMSLN-R3-his; not shown: His tag
Description: ELISA, coated antigen; antibody 10 nM.

For test [9], the target named is T5, human MSLN-R3-3 polypeptide. Description: ELISA, coated antigen; antibody 0.1 nM.
Test [10] shares this target. Description: ELISA, coated antigen; antibody 100 nM.
The target of test [11] is T6, human MSLN-R3-his protein. Description: ELISA, coated antigen; antibody 1 nM.
Test [12] has as its target T6, human MSLN-R3-his protein. Description: ELISA, coated antigen; no antibody (blank, column 'none').
Test [13] deals with T6, human MSLN-R3-his protein. Description: ELISA, coated antigen; antibody 100 nM.
In test [14] the target is T6, human MSLN-R3-his protein. Description: ELISA, coated antigen; antibody 0.1 nM.
Test [15] concerns the target T6, human MSLN-R3-his protein. Description: ELISA, coated antigen; antibody 0.001 nM.
Test [16] has as its target T5, human MSLN-R3-3 polypeptide. Description: ELISA, coated antigen; antibody 0.0001 nM.
Test [17] has the same target. Description: ELISA, coated antigen; antibody 0.01 nM.
The target in test [18] is T6, human MSLN-R3-his protein. Description: ELISA, coated antigen; antibody 0.01 nM.
The target in test [19] is T6, human MSLN-R3-his protein. Description: ELISA, coated antigen; antibody 0.0001 nM.
In test [20] the target is T5, human MSLN-R3-3 polypeptide. Description: ELISA, coated antigen; antibody 0.001 nM.

T4 sequence (Q13421 495-614): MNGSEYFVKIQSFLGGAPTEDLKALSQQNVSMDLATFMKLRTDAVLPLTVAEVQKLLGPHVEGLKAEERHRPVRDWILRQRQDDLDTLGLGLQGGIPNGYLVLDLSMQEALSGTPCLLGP
T6 sequence (Q13421 495-606): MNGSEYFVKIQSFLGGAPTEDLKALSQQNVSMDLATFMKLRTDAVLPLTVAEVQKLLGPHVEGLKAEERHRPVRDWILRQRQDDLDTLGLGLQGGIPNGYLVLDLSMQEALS
T1 sequence (Q13421 other isoform, or with tags, fused parts or gaps limits assumed): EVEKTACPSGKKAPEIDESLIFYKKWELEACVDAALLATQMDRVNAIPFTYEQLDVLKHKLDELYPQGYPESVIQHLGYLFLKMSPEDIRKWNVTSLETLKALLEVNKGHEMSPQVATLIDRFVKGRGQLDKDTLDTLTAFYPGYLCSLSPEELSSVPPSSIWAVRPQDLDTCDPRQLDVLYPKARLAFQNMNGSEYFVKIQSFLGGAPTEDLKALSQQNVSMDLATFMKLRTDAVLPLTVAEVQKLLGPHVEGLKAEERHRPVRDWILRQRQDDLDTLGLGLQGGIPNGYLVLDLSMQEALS
T2 sequence (Q13421 other isoform, or with tags, fused parts or gaps): as the sequence (Q13421 other isoform, or with tags, fused parts or gaps limits assumed) above, with P14R counted along it

B1: S009-F6-62.5 (antibody, human IgG1, kappa, V domains shown)
VH: QVQLQQPGTELVKPGASVKLSCRASGYTFTAYWMHWVKQRPGQGLEWIGNINPSNGGTDFNEKFKSKATLTVDKSSSTAYMQLSSLTSEDSAVYYCARGRGYFDVWGTGTTVTVSS
VL: DILLTQSPAILSVSPGERVSFSCRASKNIGTSIHWYQQRTNGSPRLLIKYASESISGIPSRFSGSGSGTDFTLNINSVESEDIADYYCQQSNSWPTLTFGAGTKLELKR
notes: human-murine chimeric antibody, human IgG1/kappa constant regions
B1: the EC50 (in general, the midpoint of the concentration-response curve) is 0.41 nM in test [1] and 0.31 nM in test [2]. Moreover, the “Maximum mean fluorescence intensity” value in test [1] came to 202000; in test [2] it was 2600; in [3] it was 202; in [4], 186. The binding result in test [3] and in test [4] was “no binding” in each case.

B2: S009-F4-94.15 (antibody, human IgG1, kappa, V domains shown)
VH: QVQLHQPGAELVRPGSSVKLSCKASGYTFTSYWVHWVQQRPRQGLEWIGNIDPSDSEIHYNQKFKDKATLTVDKSSSTAYIHLSRLTSEDSAIYYCVRGGVPWFAYWGQGTLVTVSA
VL: QIVLTQSPAIMSASPGEKVTLTCSASSSVSSTYLYWFQQKPGSSPKVWIYSTSNLASGVPARFSGSGSGTSYSLTISSMEAEDAASYFCHQWISYPYTFGGGTKLEIKR
notes: as for B1
In the case of B2, the EC50 stood at 3.06 nM in test [1], 0.65 nM in test [2] and 0.37 nM in test [3]. In addition, the “Maximum mean fluorescence intensity” value worked out at 113000 in test [1], 7060 in [2], 29900 in [3] and 84 in [4]. For the same molecule, in [4], the binding result is recorded as “no binding”.

B3: S009-F5-9.16 (antibody, human IgG1, kappa, V domains shown)
VH: EVQLRQSGPVLVKPGASVKMSCKASGYTFTDYFMNWVKPSHGKSLEWIGVINPSNGVINYNQRFKGKATLTVDKSSSTAYMELNSLTSEDSAVYYCARSYDFAWFAYWGQGTLVTVSA
VL: DVLMTQTPLSLPVSLGDQASISCRSSQNIVHSNGNTYLEWYLQKPGQSPKLLIYTVSNRFSGVPDRFSGSGSGTDFTLKISRVEAEDLGVYYCFQGSHVPYTFGGGTKLEIKR
notes: as for B1
B3: the results for the EC50 in test [1], in [2] and in [4] were 0.76 nM, 0.82 nM and 0.35 nM, respectively. Further, the “Maximum mean fluorescence intensity” value in test [1] came to 240000; in test [2], 3510; in [3] it was 365; in [4] it was 63900. In addition, the binding result in test [3] is listed as “no binding”.

B4: S009-F3.23.1 (antibody, human IgG1, kappa, V domains shown)
VH: QVQLQQSGADLVRPGASVTLSCKASGYTFTDYEMHWVKQTPVHGLEWIGAIDPETGDTVYNQNFKGKAILTADKSSSTAYMELRSLTSEDSAVYYCTRYGYDWGWGQGTTLTVSS
VL: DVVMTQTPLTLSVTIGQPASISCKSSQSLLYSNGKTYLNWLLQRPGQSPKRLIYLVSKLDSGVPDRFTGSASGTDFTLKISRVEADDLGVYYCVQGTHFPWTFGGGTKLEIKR
notes: Human-murine chimeric antibody, human IgG1/kappa constant regions
As to B4, the OD450 in test [5] turned out to be 2.01 OD450; in [6], 0.09 OD450; in test [7], 1.87 OD450; in test [8], 1.95 OD450; in [9], 1.54 OD450; in test [10], 2.33 OD450. The OD450 in test [11] is 1.77 OD450; in test [12] it was 0.1 OD450; in test [13], 2.31 OD450; in [14], 1.51 OD450; in [15], 0.12 OD450; in test [16], 0.09 OD450. Also, the OD450 was 0.57 OD450 in test [17], 0.48 OD450 in test [18], 0.08 OD450 in test [19] and 0.18 OD450 in test [20].

B5: S009-F6-76.1 (antibody, human IgG1, kappa, V domains shown)
VH: QVQLQQSGPELVKPGASVKISCKASGYTFTDYYINWVKQRPGQGLEWIGWIFPGRGSTFYYEKFKGKATLTVDKSSSTAYMLLSSLTSEDSAVYFCARRGDSAGYEDLDYWGQGTSVTVSS
VL: NIVMTQSPKFMSMSVGERVTLSCKASENVVTYVSWYQQKPKQSPKLLIYGASKRYTGVPDRFTGSGSATDFTLTISSVQAEDLGDYHCGQSYSYPYTFGGGTKLEIKR
notes: as for B1
Regarding B5, the figures for the EC50 in test [1] and in test [2] were 1.39 nM and 4.13 nM, respectively. Further, the “Maximum mean fluorescence intensity” value in [1] stood at 231000; in test [2] it was 6810; in test [3], 131; in test [4] it was 135. In addition, the binding result in [3] and in test [4] was “no binding” throughout.

B6: S009-F3.45.21 (antibody, human IgG1, kappa, V domains shown)
VH: DVQLQESGPGLVKPSQSLSLTCSVTGDSITSGYYWNWIRQFPGNKLEWMGFIRFDGTNNYNPSLKNRISITRDTSKNQFFLKLNSVTTEDTATYYCAREGSYAPAWFAYWGQGTLVTVSA
VL: QIVLTQSPAIMSASPGEKVTMTCSASSSLSYMYWYQQKPGSSPRLLIYDTSNLASGVPVRFSGSGSGTSYSLTISRMEAEDAATYYCQQWSSYPPTFGGGTKLEIKR
notes: as for B4
Regarding B6, the OD450 came out at 0.08 OD450 in test [5]; 0.07 OD450 in test [6]; 0.07 OD450 in test [7]; 0.07 OD450 in test [8]; 0.08 OD450 in [9]; 0.11 OD450 in test [10]. Besides, the OD450 in [11] was 0.05 OD450; in test [12] it was 0.09 OD450; in test [13] it was 0.09 OD450; in test [14] it was 0.06 OD450; in test [15] it was 0.24 OD450; in [16], 0.1 OD450. The OD450 in test [17] turned out to be 0.07 OD450; in [18] it was 0.07 OD450; in test [19], 0.09 OD450; in [20] it was 0.25 OD450.

B7: S009-F4-127.10 (antibody, human IgG1, kappa, V domains shown)
VH: EVQLQQSGPVLVKPGASVKMSCKASGYTFTDYYMNWVKQSHGKSPEWIGVINPYNDVISYNQKFKGKATLTVDKSSSTAYMELNSLTSEDSAVYYCANYGSSYYAMDYWGQGTSVTVSS
VL: DVVMTQTPLSLSVSLGDQASISCRSSQSLVHSNGNTYLQWSLQKPGQSPNLLIYKVSNRFSGVPDRFSGSGSGTDFTLKISRVEAEDLGVYFCSQTTHVPFTFGGGTKLEIRR
notes: as for B1
Take B7: the EC50 was found to be 6.07 nM in test [1], 3.42 nM in test [3] and 1.97 nM in test [4]. Further, the “Maximum mean fluorescence intensity” value in test [1] was 102000; in test [2], 3360; in [3], 41100; in [4] it was 14200.

B8: S009-F3.51.8 (antibody, human IgG1, kappa, V domains shown)
VH: QVQLQQSGAELVRPGASVTLSCKASGYTFTDYEMHWVKQTPVHGLEWIGGFDPETGGTAHNQKFKGKAILTADKSSSTAYMELRSLTSEDSAVYYCSNYGSIWGDCWGQGTSVTVSS
VL: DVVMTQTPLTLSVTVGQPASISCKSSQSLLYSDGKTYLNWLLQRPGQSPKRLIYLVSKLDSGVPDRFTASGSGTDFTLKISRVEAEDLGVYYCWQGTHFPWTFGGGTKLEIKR
notes: as for B4
As to B8, the OD450 in test [5] was found to be 1.92 OD450; in [6], 0.07 OD450; in [7], 1.8 OD450; in test [8], 1.91 OD450; in test [9] it was 1.42 OD450; in test [10] it was 2.04 OD450. Moreover, the OD450 is 1.83 OD450 in test [11]; 0.09 OD450 in test [12]; 2.18 OD450 in test [13]; 1.55 OD450 in test [14]; 0.12 OD450 in test [15]; 0.09 OD450 in test [16]. Besides, the OD450 in test [17] worked out at 0.51 OD450; in [18], 0.41 OD450; in test [19], 0.09 OD450; in test [20], 0.13 OD450.
